According to the supplement of paper PMC10567573:

B1: USP39 (parent)
chain: FVEKNPTIVNFPITNVDLREYLSE

Variants of: B1
Test: protein stability index of a GFP-peptide fusion (GPS, HEK-293T) (PSI 1-6); higher = more stable
Settings: c terminus: a fixed tail appended
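Note: lentivirally expressed fusions sorted by FACS into six bins by GFP to DsRed ratio, PSI derived from sequencing read proportions per bin multiplied by bin number.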

Variant | protein stability index
FVEKNPTIVNFPITNDDLREYLSE [V16D] | 1.89
FVEKNPTIVNFPITNVDLREYLSQ [E24Q] | 2.04
FVEKNPTIVNFPITNVCLREYLSE [D17C] | 2.08
FVEKNPTIVNFPITNVTLREYLSE [D17T] | 1.35
FVEKNPTIVNFPITNVDLREYKSE [L22K] | 2.09
FVEKNHTIVNFPITNVDLREYLSE [P6H] | 1.92
FVEKNPTIINFPITNVDLREYLSE [V9I] | 2.23
FVEKNPTINNFPITNVDLREYLSE [V9N] | 1.98
FVEKNPTIVNFPIWNVDLREYLSE [T14W] | 3.7
FVEKNPTIVNNPITNVDLREYLSE [F11N] | 2.22
FVEKNPTIVNFPITNVDLREYLSG [E24G] | 2.14
FVEKNPTIVNFPITNVDLREYLSA [E24A] | 2.19
FVEKNPTIVNFPITNVDLREYLSF [E24F] | 2.02
FVEKNPTIVNFPITAVDLREYLSE [N15A] | 1.52
DVEKNPTIVNFPITNVDLREYLSE [F1D] | 4.5
FVEKNPTIVNFPITNVDLREYLKE [S23K] | 2.59
FVEKNPTISNFPITNVDLREYLSE [V9S] | 1.8
FVEKNPTIVNFPITNVDLREYLSC [E24C] | 2.11
FVEKNGTIVNFPITNVDLREYLSE [P6G] | 1.95
FVEKNPTIVTFPITNVDLREYLSE [N10T] | 1.77
FVEKNPTIVNFPITNEDLREYLSE [V16E] | 2.04
FVEKNTTIVNFPITNVDLREYLSE [P6T] | 2.21
FVEKNPTIVNFVITNVDLREYLSE [P12V] | 2.28
FVEKNPTIVNFPITNVDLRKYLSE [E20K] | 2.56

Variant | protein stability index
FVEKNPTIVNFPITNVDLREYESE [L22E] | 1.75
FVEKNPTIVNFPITNVDLREYVSE [L22V] | 1.83
FVEKNPTIVNFPITNVDLREYHSE [L22H] | 1.5
FVEKNPTMVNFPITNVDLREYLSE [I8M] | 1.25
FYEKNPTIVNFPITNVDLREYLSE [V2Y] | 2.62
FVEKNNTIVNFPITNVDLREYLSE [P6N] | 2.1
FVEKNPTTVNFPITNVDLREYLSE [I8T] | 3.34
FVEKNPTIVNFPITMVDLREYLSE [N15M] | 2.12
FVEKNPQIVNFPITNVDLREYLSE [T7Q] | 1.81
FVEKNPTIVNFPITNVDLREYLLE [S23L] | 1.11
FVEKNPTIVNFAITNVDLREYLSE [P12A] | 2.06
FVEKNPTIVNFPITNVDLREYNSE [L22N] | 1.47
FVEKNPTITNFPITNVDLREYLSE [V9T] | 2.36
FVEKNRTIVNFPITNVDLREYLSE [P6R] | 2.13
FVEKNPTIVNFPITNVDLREPLSE [Y21P] | 1.62
FVEKNPTIVNFPITNTDLREYLSE [V16T] | 2.94
FVEKNPTIVNFPITNVDLREYLFE [S23F] | 2.12
KVEKNPTIVNFPITNVDLREYLSE [F1K] | 4.34
FTEKNPTIVNFPITNVDLREYLSE [V2T] | 3.2
FVEKNPTIVNFPITNVDLQEYLSE [R19Q] | 2.35
FVEKNPTIVNFPIMNVDLREYLSE [T14M] | 1.57
FVEKNPTIGNFPITNVDLREYLSE [V9G] | 2.03
FVEKNPTIVNFPITNVDHREYLSE [L18H] | 1.42
FVEKNPTIVNFPITNVDLCEYLSE [R19C] | 2.05

Variant | protein stability index
FVEKNPTAVNFPITNVDLREYLSE [I8A] | 1.82
FGEKNPTIVNFPITNVDLREYLSE [V2G] | 3.51
FVEKNPTIVNFPITGVDLREYLSE [N15G] | 1.37
FVKKNPTIVNFPITNVDLREYLSE [E3K] | 1.94
FWEKNPTIVNFPITNVDLREYLSE [V2W] | 2.81
FVEKNPTIVNFPITNKDLREYLSE [V16K] | 1.74
FVEKNPTIVNFPITNVDLRHYLSE [E20H] | 2.01
FVEKNPTIVNFPITNVDLREYLRE [S23R] | 2.02
CVEKNPTIVNFPITNVDLREYLSE [F1C] | 2.87
FVEKNPTIVNFPITNVNLREYLSE [D17N] | 1.55
FVEKNPTIVNFPITNVDLREYLSW [E24W] | 1.93
FVEKNPTIVNFPITNVDLRERLSE [Y21R] | 1.57
FVEKNPTIVNFPITNNDLREYLSE [V16N] | 1.49
FVEKNMTIVNFPITNVDLREYLSE [P6M] | 2.47
FVEKNPTIFNFPITNVDLREYLSE [V9F] | 1.73
FVEKNPTIVNFPITNVDNREYLSE [L18N] | 1.78
FVEKNPTIVNFKITNVDLREYLSE [P12K] | 1.56
HVEKNPTIVNFPITNVDLREYLSE [F1H] | 4.01
FVEYNPTIVNFPITNVDLREYLSE [K4Y] | 2.32
FVEKNPTIVNFPITNVDLREYLEE [S23E] | 1.83
FVEKNPTIVNFPITNIDLREYLSE [V16I] | 1.6
FVEKNPTIVNFHITNVDLREYLSE [P12H] | 1.47
FVELNPTIVNFPITNVDLREYLSE [K4L] | 2.45
FVEKNPTIVNFPITNVDLMEYLSE [R19M] | 1.65

Variant | protein stability index
FVEKNPTIVNFPITNVDLRTYLSE [E20T] | 1.46
FVEKNPTIVNFPITNVDLRESLSE [Y21S] | 2.27
FVEKNPTIVNFPGTNVDLREYLSE [I13G] | 1.71
EVEKNPTIVNFPITNVDLREYLSE [F1E] | 4.26
FVEKNPTIVNFPICNVDLREYLSE [T14C] | 1.72
FVEKNPTIVNDPITNVDLREYLSE [F11D] | 2.82
FVDKNPTIVNFPITNVDLREYLSE [E3D] | 1.95
FVEKNPAIVNFPITNVDLREYLSE [T7A] | 1.8
FVEKNPTIVNFPITNSDLREYLSE [V16S] | 1.82
FVEKNPTIVNFPITNVLLREYLSE [D17L] | 1.28
FVEDNPTIVNFPITNVDLREYLSE [K4D] | 2.85
FVEKNPTIKNFPITNVDLREYLSE [V9K] | 2.38
FVEKNPTIVNEPITNVDLREYLSE [F11E] | 3.01
FVEKNPTIVVFPITNVDLREYLSE [N10V] | 2.29
FVEKNPTILNFPITNVDLREYLSE [V9L] | 1.63
FVEKNPTIVNFPITNWDLREYLSE [V16W] | 1.52
FREKNPTIVNFPITNVDLREYLSE [V2R] | 3.84
FVEKNPTIVNFPITNVDTREYLSE [L18T] | 1.54
FVEKNPTIVNFPITNVDKREYLSE [L18K] | 1.3
FVEKNPTIVNFPITNVVLREYLSE [D17V] | 2.64
FVEKNPTIVNGPITNVDLREYLSE [F11G] | 2.13
FVEENPTIVNFPITNVDLREYLSE [K4E] | 2.47
